Source: article PMC2064081 (The Journal of Cell Biology, 2007)

Biological target: F-actin (rabbit muscle actin, filaments) (rabbit, UniProt P68135 1-377)
Assay: co-sedimentation

B1: IRSp53/IMD (IRSp53/MIM domain of human IRSp53) (domain or fragment)
chain: MSLSRSEEMHRLTENVYKTIMEQFNPSLRNFIAMGKNYEKALAGVTYAAKGYFDALVKMGELASESQGSKELGDVLFQMAEVHRQIQNQLEEMLKSFHNELLTQLEQKVELDSRYLSAALKKYQTEQRSKGDALDKCQAELKKLRKKSQGSKNPQKYSDKELQYIDAISNKQGELENYVSDGYKTALTEERRRFCFLVEKQCAVAKNSAAYHSKGKELLAQKLPLWQQACADPSKIPERAVQLMQQVASN
B1: binds.
